Reference: patent publication US20090214428A1 (HENRY M JACKSON FOUNDATION FOR THE ADVANCEMENT OF MILITARY …, published 2009)
Changes are numbered by the printed parent chain.

T1: HeV G envelope glycoprotein (on effector cells expressing HeV F and G, or on infectious HeV) (Hendra virus, UniProt O89343 1-604)
T1 sequence: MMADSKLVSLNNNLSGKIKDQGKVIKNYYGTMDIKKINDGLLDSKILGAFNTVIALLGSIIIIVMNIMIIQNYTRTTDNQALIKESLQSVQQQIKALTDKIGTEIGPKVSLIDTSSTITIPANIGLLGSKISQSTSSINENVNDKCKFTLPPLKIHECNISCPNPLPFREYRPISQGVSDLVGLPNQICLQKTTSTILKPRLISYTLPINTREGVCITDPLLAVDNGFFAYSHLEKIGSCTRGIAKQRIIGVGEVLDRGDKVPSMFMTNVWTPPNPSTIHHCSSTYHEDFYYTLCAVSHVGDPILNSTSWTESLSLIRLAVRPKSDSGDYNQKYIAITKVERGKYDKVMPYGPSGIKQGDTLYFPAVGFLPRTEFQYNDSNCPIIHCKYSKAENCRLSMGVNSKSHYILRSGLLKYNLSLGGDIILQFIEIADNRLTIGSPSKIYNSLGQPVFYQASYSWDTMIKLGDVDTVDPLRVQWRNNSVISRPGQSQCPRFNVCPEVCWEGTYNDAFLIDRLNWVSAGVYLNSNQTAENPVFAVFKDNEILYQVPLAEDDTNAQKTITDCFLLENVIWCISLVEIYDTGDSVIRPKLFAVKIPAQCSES

T2: soluble Hendra virus G glycoprotein (sG) (Hendra virus, UniProt O89343 71-604)
T2 sequence: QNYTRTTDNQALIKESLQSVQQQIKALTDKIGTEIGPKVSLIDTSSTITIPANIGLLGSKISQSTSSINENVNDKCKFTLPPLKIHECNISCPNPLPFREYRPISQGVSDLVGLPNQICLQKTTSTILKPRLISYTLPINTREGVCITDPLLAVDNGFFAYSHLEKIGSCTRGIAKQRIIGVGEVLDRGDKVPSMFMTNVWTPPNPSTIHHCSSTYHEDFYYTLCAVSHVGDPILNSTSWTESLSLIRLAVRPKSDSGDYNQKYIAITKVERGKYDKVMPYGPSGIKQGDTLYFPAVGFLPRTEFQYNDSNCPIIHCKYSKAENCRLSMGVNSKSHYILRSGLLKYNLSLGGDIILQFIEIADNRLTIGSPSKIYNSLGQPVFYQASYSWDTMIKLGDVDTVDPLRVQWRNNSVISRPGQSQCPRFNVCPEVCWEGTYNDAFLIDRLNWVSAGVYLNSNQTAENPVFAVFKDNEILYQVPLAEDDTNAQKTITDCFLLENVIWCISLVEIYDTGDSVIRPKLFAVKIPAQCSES

B1: Fab m101 (Fab, V domains shown)
VH: QVQLVQSGAEVKKPGASVKVSCKASGGTFSSYAISWVRQAPGQGLEWMGGIIPIFGTANYAQKFQGRVTITADESTSTAYMELSSLRSGDTAVYYCARDPGGYSYGPYYYYYGMDVWGQGTTVTVSS
VL: DIQMTQSPSSVSASVGDRVTITCRASQGIGPWLAWYQQKPGKAPKFLIYRASTLQSGVPSRFSGSGSGTDFTLTISSLQPEDFATYYCQQAHSFPFTFGPGTKVDIKR
B2: IgG1 m101 (antibody, V domains shown)
VH: B1 VH
VL: B1 VL
B3: Fab m103 (Fab, V domains shown)
VH: EVQLVESGGGLIQPGGSLRLSCAASGFTVSSNYMSWVRQAPGKGLEWVSVIYSGGSTYYADSVKGRFTISRDNSKNTLYLQMNSLRAEDTAVYYCARDSRYHDAFDIWGQGTMVTVSS
VL: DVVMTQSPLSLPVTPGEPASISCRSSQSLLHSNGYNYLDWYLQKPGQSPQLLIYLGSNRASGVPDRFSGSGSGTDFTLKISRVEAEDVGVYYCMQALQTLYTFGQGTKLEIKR
B4: Fab m111 (Fab, V domains shown)
VH: QVQLVQSGAEVKKPGATVKISCKVSGYTFTDYYMHWVQQAPGKGLEWMGLVDPEDGETIYAEKFQGRVTITADTSTDTAYMELSSLRSEDTAVYYCATEGADYWGQGTLVTVSS
VL: DVVMTQSPLSLPVALGQPASISCRSSQSLVHSDGNTYLNWFQQRPGQSPRRLLYKVSNRESGVPDRFSGSGSGSDFTLKISRVEAEDVGIYYCMQGTHWPPITFGQGTRLEIKR
B5: Fab m112 (Fab, V domains shown)
VH: B4 VH with E62Q, D77N, E99D, G105D, V110G, S114T
VL: QSVLTQPPSVSGAPGQTVTISCTGSSSNIGGDSDVHWYQQLPGSAPKLLIYGNRNRPSGVPDRFSGSRSGTSASLAVIGVQADDEADYYCQCYDSSLNGYVFGPGTKVIVL
B6: Fab m104 (Fab, V domains shown)
VH: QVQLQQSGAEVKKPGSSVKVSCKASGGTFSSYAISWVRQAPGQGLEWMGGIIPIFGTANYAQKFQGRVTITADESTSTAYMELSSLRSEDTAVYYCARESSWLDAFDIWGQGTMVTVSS
VL: DVVMTQSPLSLSVTAGEPASISCRSSQSLLHSNGHIYLDWYLQKPGQSPQLLIYMASNRASGVPDRFSGSGSGTDFTLRINRVETEDVGIYYCMQSLHTTRTFGQGTKVEIKR
B7: Fab m115 (Fab, V domains shown)
VH: QVQLQQSGAEVKKPGSSVKVSCKASGGTFRSYAISWVRQAPGQGLEWMGGIIPIFGTANYAQKFQGRVTITADESTSTAYMELSSLRSEDTAVYYCARGSQSYDHYYYYGMDVWGQGTTVTVSS
VL: QSALTQPASVSGSPGQSITISCTGTSSDVGGYNYVSWYQQHPGKAPKLMIFDVSNRPSGVSNRLSGSKSGNTASLTISGLQAEDEADYYCSSYTSNTVVFGGGTKLTVL
B8: Fab m109 (Fab, V domains shown)
VH: QMQLQQWGAGLLKPSETLSLTCAVYGGSFSGYYWSWIRQPPGKGLEWIGEINHSGSTNYNPSLKSRVTISVDTSKNQFSLKLSSVTAADTAVYYCARGWFRDWYFDLWGRGTLVTVSS
VL: DIQMTQSPSSLSASVGDRVTITCRASQDIRNDLGWYQQRPGKAPKLLIYAASSLQSGVPSRFSGSGSGTDFTLTISSLQPEDSATYFCLQDYQYPWTFGQGTKVEIKR
B9: Fab m108 (Fab, V domains shown)
VH: EVQLVESGGGLVKPGGSLRLSCAASGFTFSDYYMSWIRQAPGKGLEWVSYISSSGSTIYYADSVKGRFTISRDNAKNSLYLQMNSLRAEDTAVYYCARVGGAFDIWGQGTMVTVSS
VL: NFMLTQPHSVSGSPGKTVTISCTRSSGSIASNYVQWYRQSPGSAPTTVIYEGYQRPSGVPDRFSGSIDSSSNSASLTISGLETEDEADYYCQSYDATNHQVVFGGGTKLTVL
B10: Fab m105 (Fab, V domains shown)
VH: QVQLVQSGGGVVQPGRSLRLSCAASGFTFSSYAMHWVRQAPGKGLEWVAVISYDGSNKYYADSVKGRFTISRDNSKNTLYLQMNSLRAEDTAVYYCARVGGITGTADAFDIWGQGTMVTVSS
VL: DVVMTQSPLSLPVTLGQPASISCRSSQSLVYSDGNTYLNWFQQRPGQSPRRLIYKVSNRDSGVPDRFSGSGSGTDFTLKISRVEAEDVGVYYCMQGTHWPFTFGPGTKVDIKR
B11: Fab m113 (Fab, V domains shown)
VH: QVQLQQSGAEVKKPGSSVKVSCKASGGTFSSYAISWVRQAPGQGLEWMGWTNPNSGGTNYAQKLQGRVTMTTDTSTSTAYMELRSLRSDDTAVYYCANYKLQSDAFDIWGQGTMVTVSS
VL: DIQMTQSPSSLSASVGDRVTITCRASQDIGNFLVWFQQKPGKAPKSLIYAASRLQSGVPSRFSGSGSGTDFTLTISSLQPEDFATYYCQHYKSYPLTFGGGTKVEIKR
B12: Fab m117 (Fab, V domains shown)
VH: QITLKESGPTLVKPTQTLTLTCTFSGFSLSTSGVGVGWIRQPPGKALEWLALIYWDDDKRYSPSLKSRLTITKDTSKNQVVLTMTNMDPVDTATYYCAHRESGPEFFQHWGQGTLVTVSS
VL: DVVMTQSPLSLPVTLGQPASISCNSSQSLVYSNGITYLNWFHQRPGQSPRRLIYQVSNWDSEVPDRFSGSGSATDFTLKISRVEADDVGIYYCMQGTHWPPTFGQGTRLEIKR
B13: Fab m116 (Fab, V domains shown)
VH: EVQLVQSGAEVKKPGSSVKVSCKASGGAFSSYAISWVRQAPGQGLEWMGGIIPIFGTANYAQKFQGRVTITADESTSTAYMELSSLRSEDTAVYYCARDSAGLGAWGQGTLVAVSS
VL: DIQMTQSPSSLSASVGDRVTITCRASQGISSALAWYQQKPGKAPKLLIYDASSLESGVPSRFSGSGSGTDFTLTISSLQPEDFATYYCQQFNSYPLTFGQGTRLEIKR
B14: Fab m106 (Fab, V domains shown)
VH: QVQLQQSGAEVKKPGSSVKVSCKASGGTFSSYAISWVRQAPGQGLEWMGGIIPIFGTANYAQKFQGRVTITADKSTSTAYMELSSLRSEDTAVYYCARDQLAGYYYDSSGYHYYYYGMDVWGQGTTVTVSS
VL: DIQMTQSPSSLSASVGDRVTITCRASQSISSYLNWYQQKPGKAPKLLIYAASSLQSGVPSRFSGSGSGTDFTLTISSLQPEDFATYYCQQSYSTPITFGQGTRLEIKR
B15: Fab m107 (Fab, V domains shown)
VH: EVQLVQSGAEVKKPGASVKVSCKASGYTFTGYYMHWVRQAPGQGLEWMGIINPSGGSTSYAQKFQGRVTMTRDTSTSTVYMELSSLRSEDTAVYYCARDHVHGPDAFDIWGQGTMVTVSS
VL: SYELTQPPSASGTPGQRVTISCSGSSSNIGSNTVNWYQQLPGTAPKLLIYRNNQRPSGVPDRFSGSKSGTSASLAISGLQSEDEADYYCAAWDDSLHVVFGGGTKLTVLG
B16: Fab m110 (Fab, V domains shown)
VH: EVQLVQSGGGLVQPGRSLRLSCAASGFTFDDYAMHWVRQAPGKGLEWVSAISGSGGSTYYADSVKGRFTISRDNSKNTLYLQMNSLRAEDTAVYYCASEGLPETDDAFDIWGQGTMVTVSS
VL: DVVMTQSPLSLPVTPGEPASISCRSSQSLLYSDGYNYLDWYLQKPGQSPQLLIYLGSRRASGVPDRFSGSGSGTDFTLKINTVEAEDVGVYYCMQGVEIPFTFGPGTKVEIKR

The binders below were run against T1, HeV G envelope glycoprotein (on …) (assay: cell-based or functional assay).
B1 was tested, and the “IC50 of HeV Env-mediated cell fusion, reporter gene assay, PCI-13 target cells” value was 38 µg/mL. B2 was tested, and the “IC50 of HeV Env-mediated cell fusion, reporter gene assay, PCI-13 target cells” value was 1.2 µg/mL.

Each binder was assayed against T2, soluble Hendra virus G glycoprotein (sG) (assay: SPR (Biacore); upper end of the range told of the group, tied to m103 by Table 5).
In the case of B3, the Kd is reported as 1000 nM.

Each binder was assayed against T2, soluble Hendra virus G glycoprotein (sG) (assay: not given).
Binder B3 has a Kd of 1800 nM.

Each binder was assayed against T2, soluble Hendra virus G glycoprotein (sG) (assay: ELISA, purified soluble Fab on coated sG).
B4 gave an A450 of 0 A450. B5 gave an A450 of 0.4 A450. B6 gave an A450 of 0.7 A450. B7 gave an A450 of 0.4 A450. B1 gave an A450 of 1 A450. B8 showed an A450 of 0 A450. With B9 the A450 was 0.5 A450. With B10 the A450 was 0.9 A450. B11 showed an A450 of 0.1 A450. For B12, the A450 was 0 A450. Work on B3 yielded an A450 of 0.8 A450. B13 was tested, and the A450 was 0.3 A450. Work on B14 yielded an A450 of 1.6 A450. For B15, the A450 was 0.6 A450. In the case of B16, the A450 is reported as 0 A450.

The binders below were run against T2, soluble Hendra virus G glycoprotein (sG) (assay: SPR (Biacore 1000), sG immobilised on CM5, Fab injected, 25 C, 1:1 Langmuir fit).
B6 was tested, and the Kd was 600 nM, the koff was 0.0016 s⁻¹ and the kon was 3000 M⁻¹ s⁻¹. B1 gave a Kd of 28 nM, a koff of 0.0035 s⁻¹ and a kon of 130000 M⁻¹ s⁻¹. With B10 the Kd was 69 nM, the koff was 0.0051 s⁻¹ and the kon was 74000 M⁻¹ s⁻¹. B14 was tested, and the Kd was 54 nM, the koff was 0.0033 s⁻¹ and the kon was 62000 M⁻¹ s⁻¹. B15 gave a Kd of 78 nM, a koff of 0.0022 s⁻¹ and a kon of roughly 30000 M⁻¹ s⁻¹.
